Laboratory results from patent publication US20200231652A1 (NATIONAL RESEARCH COUNCIL OF CANADA, published 2020).

Molecular target: RSV-F (UniProt P03420 26-529)
Experiment: SPR, similar method as for Cetuximab

Sequence of RSV-F (P03420 26-529): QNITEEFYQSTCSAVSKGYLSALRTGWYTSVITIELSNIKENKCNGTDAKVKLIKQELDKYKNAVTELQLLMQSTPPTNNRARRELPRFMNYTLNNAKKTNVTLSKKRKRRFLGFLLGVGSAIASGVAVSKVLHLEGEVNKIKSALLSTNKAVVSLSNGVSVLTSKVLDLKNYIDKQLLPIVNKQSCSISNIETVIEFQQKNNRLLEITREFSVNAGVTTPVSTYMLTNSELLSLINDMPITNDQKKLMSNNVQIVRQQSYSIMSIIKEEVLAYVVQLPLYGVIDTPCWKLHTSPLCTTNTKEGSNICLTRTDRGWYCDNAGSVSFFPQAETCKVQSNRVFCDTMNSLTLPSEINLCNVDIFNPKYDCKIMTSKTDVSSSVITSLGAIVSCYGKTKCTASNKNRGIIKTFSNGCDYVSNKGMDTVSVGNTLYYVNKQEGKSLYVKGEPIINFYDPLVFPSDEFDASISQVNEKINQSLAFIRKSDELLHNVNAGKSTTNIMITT

B1: Synagis (antibody, human IgG1, kappa, V domains shown)
VH: QVTLRESGPALVKPTQTLTLTCTFSGFSLSTSGMSVGWIRQPPGKALEWLADIWWDDKKDYNPSLKSRLTISKDTSKNQVVLKVTNMDPADTATYYCARSMITNWYFDVWGAGTTVTVSS
VL: DIQMTQSPSTLSASVGDRVTITCKCQLSVGYMHWYQQKPGKAPKLLIYDTSKLASGVPSRFSGSGSGTEFTLTISSLQPDDFATYYCFQGSGYPFTFGGGTKLEIKR
  Kd: 6.6 nM
